Results published in the nanobody polyreactivity screen of Harvey et al. (2022).

Assay: yeast display, Sf9 membrane polyspecificity reagent, FACS + sequencing; frameworks hold sequencing errors
How it was run: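 Genes from sorted yeast were amplified by colony PCR, read by MiSeq 2 × 250 sequencing and filtered on CDR length. These cells carried a synthetic nanobody library in Saccharomyces cerevisiae BJ5465 and were sorted by FACS into low and high (top ~1%) gates on anti-HA and streptavidin fluorescence. Polyreactivity is labelled according to the gate of origin.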

## QVQLVESGAGLVHAGGSLRLSCAASGRTFSSNAMGGYRQAPGKERELVAGITWGGGSTYYADSVKGRFTISRDNAKNTVYLQMYSLKPEDTAVYYCAKSAGKRGYQVDYWVQGTQVTVSS
  polyreactivity (PSR sort gate): high polyreactivity

## QVQLVESWGGLVQAGGSLRLSCAASGRTFYSNAMGWYRQARGNERELVAAISRSGGTTYYADSVKGRFTISRDNAKNTVYLLMNSLKPEDTAVYYCNTLRYGTTGKYDYWGQGTQVTVSS
  polyreactivity (PSR sort gate): high polyreactivity

## QVQLVESGGGLVQAGGSLRLSCAASGRTFAYNAMGWYRQAPGKERELVAAISGNGGRTYYADSVKGRFTISRDNAKNTVYLQMNSLKPEDTAVYYCNAAVGYYSYSYYTKVGVDYWGQGTQVTVSS
  polyreactivity (PSR sort gate): high polyreactivity

## QVQLVESGGGLVQAGGSLRVSCAASGFIFGDYAMGWYRQAPGKERELVAAINRGASTYYADSVKGRFTISRDNAKNTVYLQMNSLKPEDTAVYYCAAAGYSRGGRGGYWGQGTHVTVSS
  polyreactivity (PSR sort gate): high polyreactivity

## QVQLVESGGGLVQAGGSLRLSCAASGSTFGYYAMGWYRQAPGKERELVATITIGGSTHYADSVKGRFTISRDNAKNTVYLQMNSLKPEDTAVYYCAKRYYTNRHSRAFGFWGQGSQVTVSS
  polyreactivity (PSR sort gate): high polyreactivity

## QVQLVESGGGLVKAGGSLRLISAATGSIFTFYAMGWYRQAPGKERELVATINRIGGNTYYADSVKGRFTISRDNAKNTVYLQMNSLKPEDTAVYYCAAKPTDRGYGYGSWGQGTQVSVSS
  polyreactivity (PSR sort gate): low polyreactivity

## QVQLLESGGGLVQAGGSLRLSCAASGSTFINNAMGWYRQAPGKERELVAAISGNADRTYYADSVKGRFTISRDYAKNTVYLQMISLKPEDTAVYYCNALSLLSDGAASVDQVTFDYWGQGTQVTVSS
  polyreactivity (PSR sort gate): low polyreactivity

## QVQLVESGGGLVQAGGSLRLSCAASGRIFYHNTMGWYRQAPGKERELVAAIRSGSSSYYADSVKGRFTISRDNAKNTVYLQMNSLKPEDTAVYYCNARPWYSWGVDYDYWGQGTQVTVSS
  polyreactivity (PSR sort gate): low polyreactivity

## QVQLVESGGGLVQAGGSLRLSCASTGSTFTTYAMGWYRQPPGKERELVAAISSRSTRTYYADSVKGRFTISRDNAKNTVYLQMNSLKPEDTAVYYCAASVPWKYEYWGQGTQVTVSS
  polyreactivity (PSR sort gate): high polyreactivity

## QVQLVESGGGIVQAGGSLRLSCAASGSIQRYNDMGWYRQAPGKERELVAAISRSGGSTYYTDSVKGRFTISRDNAKNTDYLQMNSLKPEDTAVYFCYKASYTTVYAKYYYWGLGTQVTVSS
  polyreactivity (PSR sort gate): high polyreactivity

## QVHLVESGGGLVQAGGSLRISCAAYGRTFRYYAMGCYRQAPAKDRELVAGISSSGDRTYFADSVKGRFTISRDTAKNTVYLQMNSLKPEDTAVYYCAADRGARGDYYWGQGTQVTVSS
  polyreactivity (PSR sort gate): high polyreactivity

## QVQLVESGGGLVQAGGSLRLSCAASGITFYEYAMGWYRQAPGKERELVAAISTSGGNTYYADSVKGRFTISRDNAKNTVYLQMKSLKPEDTAVYYCAAQGTASSYSGGDYWGQGTQVTVSS
  polyreactivity (PSR sort gate): low polyreactivity

## QVQLVESGGGLVQAGGSLRLSCAASGPTFNRYTMGWYRQAPGKERELVATITGGGSTNYADSVKGRFTISRDNAKNTVYLQMNSLKPEDTAVYYCARAVVQSRGPPRYKTPYDYWGQGTQVTVSS
  polyreactivity (PSR sort gate): low polyreactivity

## QVQLVESGGGLVQAGGSLRLSCAASGRIFKFNAMGWYRQAPGKVRELVAATWSGGRTSYADSVKGRFTISRDNAKNTVYLQMNSLKPEDTAVYYCNAADWIDVQYDYGGQGTQVTVSS
  polyreactivity (PSR sort gate): low polyreactivity

## QVQLVESGGGLVQAGGSLRLSCAASGFIFSRNALGWYRQAPGKERELVAVISTRGGSTYYADSVKGRFTISRDNAKNTVYLQMNSLKPEDTAVYYCAARRTRGYEYWGQGTQVTVSS
  polyreactivity (PSR sort gate): high polyreactivity

## QVQLEESGGGLVQAGGSLRLSCAASGLTLYKNGMGWYRQSPGKERELVAVISRSGGRTYYADSVKGRFTISRDNAKNTVYLQMNSLKPDDTAVYYCAARQYGPRYTYYYWGQGTQVTVSS
  polyreactivity (PSR sort gate): high polyreactivity

## QVQLVESGGGLVQAGGSLRLSCAASGITFDKNTMGWYRQAPGKERELVAAISARGGSTYYADSVKGRFTISRDNAKYTVYLQMNSLKPEDTAVYYCAATRSYSYRTVYRRKYNYWGQGTQVTVSS
  polyreactivity (PSR sort gate): high polyreactivity

## QVQLVESGGGLVQAGGSLRLSCDASGFTFYGNAMGWYRQAPGKERELVAAISGRGGSTYYADSVKGRFTISRDNAKNTVYLQMNSLKPEDTAVYYCAIYVSWPLYYYWGQGTQVTVSS
  polyreactivity (PSR sort gate): low polyreactivity

## QVQLVESGGGLVQAGGSLRLSCAASGRILFRYGMGWYRQAPGKERELVARISWSGGNTHYADSVKGRFTISRDNAKNTVYLQMNSLKPEDTAVYYCNAYYTYWYPRYDYWGQGTQVTVSS
  polyreactivity (PSR sort gate): low polyreactivity

## QVQLVESGGGLVQAGGSLRLSCAASGSTFVPNAMGWYRQAPGKERELVATINYADSVKGRFTISRDNAKNTVYLQMNSLKPEDTAVYYCATETAVYLVWGTALDYWGQGTQVTVSS
  polyreactivity (PSR sort gate): low polyreactivity

## QVQLVESGGGLVQAGGSLRLSCAASGIIFRPNAMGWYRQEPGKERELVAAISRNGVRTYYSDSVKGRFTISRDNAKITVYLQMNSLKPEDTAVYYCNRDYNAAYDWGEGTQVTVSS
  polyreactivity (PSR sort gate): high polyreactivity

## QVQLVESGGGFVQAGGSLRLRCAASGLIFAPYAMGWYRQAPGKEREFVAAITRSDGSTYYADSVKGRFTISRDNAKNTVYLQMNSLKPEDTAVYYCAAEPDTYWYTYDYWGQGSQVTVSS
  polyreactivity (PSR sort gate): low polyreactivity

## QVQLVESGGGLVQAGGSLRLSCAASGSTFANNAMGWYRQAPGKERELVASITTDGSTNYADSVKGRFTIARDNAKNTVYLQMNSLKPEDTAVYYGAADYHTPSSFAPIELYDYWGQGTQVTVSS
  polyreactivity (PSR sort gate): low polyreactivity

## QVQLVQSRGGLVQAGGSLRLSCSASGFIFIYNVMGWYRQAPGKERDMVAAINRGGSTKYADSVKGRFTISRDNAKITVYLQMNSLKPEDSAVYYCAARYDGSRYHYDGYDYWGQGTQVTVSS
  polyreactivity (PSR sort gate): low polyreactivity

## QVQLVESGGGLVQAGGSLRLSCSASGRIFYPYAMGWYRQAPGKERELVAAITRRTASTYYADSVKGRFTISRDNAKNTVYLQMNSLKPEDTAVYFCAADSYLKRPYYAGYYYWGQGTQVTVSS
  polyreactivity (PSR sort gate): high polyreactivity

## QVQLVESGGGLVQAGGSLRLSCAASGSIFGIYAMGWYRQAPGKERELVADITYSGGSTYYADSVKGRFTISRDNAKNTVYLQMNSLKPEDTAVYYCAADWVYVNAWTGGWTYEYWGQGTQVTVSS
  polyreactivity (PSR sort gate): high polyreactivity

## QVQLVESGGGLVQAGGSLRLSCAASGYIYGVYAMGWYRQAPGKERELVAAISYGVGSTYYADSVKGRFTISRDNAKNTVYLQMNSLKPEDTAVYYCAAEDTQVRWSPVRPLEYYCGQGTQVTVSS
  polyreactivity (PSR sort gate): low polyreactivity

## QVQLVESGGGLVQAGGSLRLSCAASGSTLTRHAMGWYRQAPGKERELVAAITSGGRTKYADSVKGRFTISRDNAKYTVYLHMNSLKPEDTAVYYCAKGGPPGQRGYDYWGQGTQVTVSS
  polyreactivity (PSR sort gate): high polyreactivity

## QVQLVESGGGLVQAGGSLRLSCAASGSTFPSYAMGWYRQAPGKERELVAAISGSGTSTYYADSVKGRFTISRDNAKNTVYLQMNSRKPEDTAVYYCRAVWLSTYLGWGRDYWGQGTQVTVSS
  polyreactivity (PSR sort gate): high polyreactivity

## QVQLVESGGGIVQAGGSLRLSCAASGRTFFYYAMGWYRQAPGKERELVAAITTDGGTTYYADSVKGRFTISRDNAKNTVSLQMNSLKPEDTAGYYCAADASYQYYPYDYWGQGTQVTVSS
  polyreactivity (PSR sort gate): low polyreactivity

## QVQLVESGGGLVQAGGSLRLSCAASGFTFKYYAMGWYRQAPGKERELVATITRSGGNTYYADSVKGRFTISRDNAKNTVYLQMNSLKPEDTAVYYCNKGVRRSVYSRYDYWGQGTQVTVSS
  polyreactivity (PSR sort gate): high polyreactivity

## QVQLVESGGGLVQAGGSLRLSCAASGFIFGEYTMGWYRQAPGKEREFVAAISWSGGSTSYADSVKGRFTISRDNAKNTVYLQMNSLKPEDTAVYYCAARYGSDYDYWGQGTQVTVSS
  polyreactivity (PSR sort gate): low polyreactivity

## QVQLVESGGGLVQAGGSLRLSCAASGSIFYRNAMGWYRQAPGKERELVASITSGGRTNYADSVKGRFTISRDNAKNTVYLQMNSLKPEDTAVYYCARGRASYTKSGPTPYTGYGYWGQGTQVTVSS
  polyreactivity (PSR sort gate): low polyreactivity

## QVQLVESGGGLVQAGGSLRLSCAASGSIFREYVMGWYRQAPGKEREFVAAISVSGGSTNYADSVKGRFTISRDNAKNTVYLQMNSLKPEDTAVYYCNADGVLTGYSRGGWYYWGQGTQVTVSS
  polyreactivity (PSR sort gate): low polyreactivity

## QVQLVESGGGLVQAGGSLRLSCAASGRIDHNAMDWYRQAPGKERELVAAITWSGGGTYYADSVKGRFTISRDNAKNTVYLQMNSLKPEDTAVYYCNVRRAFSGWRGYDYWGQGTQVTVSS
  polyreactivity (PSR sort gate): high polyreactivity

## QVQLVESVGVLVQAGGSLRLSSAASGGILPRYAMGWYRQAPGKERELVAVITRGGSTYYADSVKGRFTISRDNAKNTVYLQMNSLKPEDNAVYYFAKYRYQTGIFYYWGQGTQVTVSS
  polyreactivity (PSR sort gate): high polyreactivity

## QVQLVESGGGLVQAGGSLRLSCAASGGTLRYYVMGWYRQAPGKDRELVAAISWAGDSTYYADSVKGRFTISRDNAKNTVYLQMNSLKPEDTAVYYCAATYYLTYYSGQANHGYDYWGQGTQVTVSS
  polyreactivity (PSR sort gate): low polyreactivity

## QVQLVESGGGLVQAGGSLRLSCAASGSIFGLNAMGWYRQAPGKERELVAAINSDGDTYYADSVKGRFTISRDNAKNTVCLQMNSLKPEDTAVYYCAALQRRDHNGDYWGQGTQVTVSS
  polyreactivity (PSR sort gate): low polyreactivity

## QVQLVDSGGGLVQAGGILRLRFAASGYTFDKYAMGWYRQKPGKARELVAAITSLGGSKYYADSVKGRFTISRDHAKNTVYLQMNSLKPDVTAVYYCAAEYVAPVPRVHEEMYYWGQGTQVTVSS
  polyreactivity (PSR sort gate): high polyreactivity

## QVQLVESGGGLVQAGGSLRLSCAASGSTFSYNAMGWYRQAPGKERELVASISTSGGSTYYADSVKGRFTISRDNAKNTVYLQMNSLKPEDTAVYYCNAPTSDMYSDFDYWGQGTQVTVSS
  polyreactivity (PSR sort gate): low polyreactivity

## QVQLVESGGGLVQAGGSLRLSCSASGSTFYGYAMGWYRQAPGKEWELVAAINWSGGSTYYADSVKGRFTISRDNAKNTVYLQMNSLKPEDTAVYYCNKAWLGSVSRRYYYWGQGTQVTVSS
  polyreactivity (PSR sort gate): high polyreactivity

## QVQLVESGGGLVQAGGSLRLSCAASGRTFRYNAMGWYRQAPGKERELVAVINSNGGSTYYADSVKGRFTISRDNAKNTVYLQMNSLKPEDTAVYYCAADYLRIQEYDYWGQGTQVTVSS
  polyreactivity (PSR sort gate): low polyreactivity

## QVQLVESGGGLVQAGGSLRLSCAASGSTFVGYVMGWYRQAPGKERELVAAITRSGTSTYYADSVKGRFTISRDNAKNTVYLQMNSLKPEDTAVYYCARRYVSSDYYYWGQGTQVTVSS
  polyreactivity (PSR sort gate): low polyreactivity
